B1: mRNA-splicing (parent)
chain: AGUUGCUGCUGGGAGCUCCAGCACAGUGAAAUGGACAGAAGGGCAGAGCAA

Variants of: B1
Experiment: exon inclusion enrichment index; higher = more inclusion; WT1 exon 5 minigene, HEK293

Variant	exon inclusion enrichment index
AGUUACCACCGGGAGCUCCAGCACAGUGAAAUGGACAGAAGGGCAGCGCAA [G5A U7C G8A U10C A47C]	2.83
AGUUACCACCGGGAGCUCCAGCACAGUGAAAUGGACAGAAGGGCAGCACAA [G5A U7C G8A U10C A47C G48A]	1.74
AGUUACCACCGGGAGCUCCAGCACAGUGAAAUGGACAGAAGGGCAGCCCAA [G5A U7C G8A U10C A47C G48C]	2.06
AGUUACCACCGGGAGCUCCAGCACAGUGAAAUGGACAGAAGGGCAGCUCAA [G5A U7C G8A U10C A47C G48U]	2.34
AGUUACCACCGGGAGCUCCAGCACAGUGAAAUGGACAGAAGGGCAGGGCAA [G5A U7C G8A U10C A47G]	0.395
AGUUACCACCGGGAGCUCCAGCACAGUGAAAUGGACAGAAGGGCAGGACAA [G5A U7C G8A U10C A47G G48A]	1.37
AGUUACCACCGGGAGCUCCAGCACAGUGAAAUGGACAGAAGGGCAGGCCAA [G5A U7C G8A U10C A47G G48C]	1.13
AGUUACCACCGGGAGCUCCAGCACAGUGAAAUGGACAGAAGGGCAGGUCAA [G5A U7C G8A U10C A47G G48U]	0.325
AGUUACCACCGGGAGCUCCAGCACAGUGAAAUGGACAGAAGGGCAGUGCAA [G5A U7C G8A U10C A47U]	2
AGUUACCACCGGGAGCUCCAGCACAGUGAAAUGGACAGAAGGGCAGUACAA [G5A U7C G8A U10C A47U G48A]	1.85
AGUUACCACCGGGAGCUCCAGCACAGUGAAAUGGACAGAAGGGCAGUCCAA [G5A U7C G8A U10C A47U G48C]	1.6
AGUUACCACCGGGAGCUCCAGCACAGUGAAAUGGACAGAAGGGCAGUUCAA [G5A U7C G8A U10C A47U G48U]	1.85
AGUUACCACCGGGAGAUCCAGCACAGUGAAAUGGACAGAAGGGCAGAGCAA [G5A U7C G8A U10C C16A]	2.46
AGUUACCACCGGGAGAACCAGCACAGUGAAAUGGACAGAAGGGCAGAGCAA [G5A U7C G8A U10C C16A U17A]	2.05
AGUUACCACCGGGAGACCCAGCACAGUGAAAUGGACAGAAGGGCAGAGCAA [G5A U7C G8A U10C C16A U17C]	1.83
AGUUACCACCGGGAGAGCCAGCACAGUGAAAUGGACAGAAGGGCAGAGCAA [G5A U7C G8A U10C C16A U17G]	1.33
AGUUACCACCGGGAGGUCCAGCACAGUGAAAUGGACAGAAGGGCAGAGCAA [G5A U7C G8A U10C C16G]	1.39
AGUUACCACCGGGAGGACCAGCACAGUGAAAUGGACAGAAGGGCAGAGCAA [G5A U7C G8A U10C C16G U17A]	2.77
AGUUACCACCGGGAGGCCCAGCACAGUGAAAUGGACAGAAGGGCAGAGCAA [G5A U7C G8A U10C C16G U17C]	1.06
AGUUACCACCGGGAGGGCCAGCACAGUGAAAUGGACAGAAGGGCAGAGCAA [G5A U7C G8A U10C C16G U17G]	0.238
AGUUACCACCGGGAGUUCCAGCACAGUGAAAUGGACAGAAGGGCAGAGCAA [G5A U7C G8A U10C C16U]	2.53
AGUUACCACCGGGAGUACCAGCACAGUGAAAUGGACAGAAGGGCAGAGCAA [G5A U7C G8A U10C C16U U17A]	1.74
AGUUACCACCGGGAGUCCCAGCACAGUGAAAUGGACAGAAGGGCAGAGCAA [G5A U7C G8A U10C C16U U17C]	1.33
AGUUACCACCGGGAGUGCCAGCACAGUGAAAUGGACAGAAGGGCAGAGCAA [G5A U7C G8A U10C C16U U17G]	0.815
AGUUACCACCGGGAGCUACAGCACAGUGAAAUGGACAGAAGGGCAGAGCAA [G5A U7C G8A U10C C18A]	1.35
AGUUACCACCGGGAGCUAAAGCACAGUGAAAUGGACAGAAGGGCAGAGCAA [G5A U7C G8A U10C C18A C19A]	0.451

Variant	exon inclusion enrichment index
AGUUACCACCGGGAGCUAGAGCACAGUGAAAUGGACAGAAGGGCAGAGCAA [G5A U7C G8A U10C C18A C19G]	0.297
AGUUACCACCGGGAGCUAUAGCACAGUGAAAUGGACAGAAGGGCAGAGCAA [G5A U7C G8A U10C C18A C19U]	0.0739
AGUUACCACCGGGAGCUGCAGCACAGUGAAAUGGACAGAAGGGCAGAGCAA [G5A U7C G8A U10C C18G]	2.35
AGUUACCACCGGGAGCUGAAGCACAGUGAAAUGGACAGAAGGGCAGAGCAA [G5A U7C G8A U10C C18G C19A]	2.92
AGUUACCACCGGGAGCUGGAGCACAGUGAAAUGGACAGAAGGGCAGAGCAA [G5A U7C G8A U10C C18G C19G]	2.62
AGUUACCACCGGGAGCUGUAGCACAGUGAAAUGGACAGAAGGGCAGAGCAA [G5A U7C G8A U10C C18G C19U]	0.528
AGUUACCACCGGGAGCUUCAGCACAGUGAAAUGGACAGAAGGGCAGAGCAA [G5A U7C G8A U10C C18U]	1.67
AGUUACCACCGGGAGCUUAAGCACAGUGAAAUGGACAGAAGGGCAGAGCAA [G5A U7C G8A U10C C18U C19A]	0.212
AGUUACCACCGGGAGCUUGAGCACAGUGAAAUGGACAGAAGGGCAGAGCAA [G5A U7C G8A U10C C18U C19G]	0.804
AGUUACCACCGGGAGCUUUAGCACAGUGAAAUGGACAGAAGGGCAGAGCAA [G5A U7C G8A U10C C18U C19U]	0.0421
AGUUACCACCGGGAGCUCAAGCACAGUGAAAUGGACAGAAGGGCAGAGCAA [G5A U7C G8A U10C C19A]	1.39
AGUUACCACCGGGAGCUCACGCACAGUGAAAUGGACAGAAGGGCAGAGCAA [G5A U7C G8A U10C C19A A20C]	1.38
AGUUACCACCGGGAGCUCAGGCACAGUGAAAUGGACAGAAGGGCAGAGCAA [G5A U7C G8A U10C C19A A20G]	0.441
AGUUACCACCGGGAGCUCAUGCACAGUGAAAUGGACAGAAGGGCAGAGCAA [G5A U7C G8A U10C C19A A20U]	0.815
AGUUACCACCGGGAGCUCGAGCACAGUGAAAUGGACAGAAGGGCAGAGCAA [G5A U7C G8A U10C C19G]	1.88
AGUUACCACCGGGAGCUCGCGCACAGUGAAAUGGACAGAAGGGCAGAGCAA [G5A U7C G8A U10C C19G A20C]	2.4
AGUUACCACCGGGAGCUCGGGCACAGUGAAAUGGACAGAAGGGCAGAGCAA [G5A U7C G8A U10C C19G A20G]	1.34
AGUUACCACCGGGAGCUCGUGCACAGUGAAAUGGACAGAAGGGCAGAGCAA [G5A U7C G8A U10C C19G A20U]	2.09
AGUUACCACCGGGAGCUCUAGCACAGUGAAAUGGACAGAAGGGCAGAGCAA [G5A U7C G8A U10C C19U]	0.131
AGUUACCACCGGGAGCUCUCGCACAGUGAAAUGGACAGAAGGGCAGAGCAA [G5A U7C G8A U10C C19U A20C]	1.64
AGUUACCACCGGGAGCUCUGGCACAGUGAAAUGGACAGAAGGGCAGAGCAA [G5A U7C G8A U10C C19U A20G]	0.888
AGUUACCACCGGGAGCUCUUGCACAGUGAAAUGGACAGAAGGGCAGAGCAA [G5A U7C G8A U10C C19U A20U]	0.734
AGUUACCACCGGGAGCUCCAGAACAGUGAAAUGGACAGAAGGGCAGAGCAA [G5A U7C G8A U10C C22A]	2.32
AGUUACCACCGGGAGCUCCAGACCAGUGAAAUGGACAGAAGGGCAGAGCAA [G5A U7C G8A U10C C22A A23C]	3.53
AGUUACCACCGGGAGCUCCAGAGCAGUGAAAUGGACAGAAGGGCAGAGCAA [G5A U7C G8A U10C C22A A23G]	2.59

From the RNAGym collection of RNA variant scans (doi:10.1101/gr.219683.116)
